# B1: HA-tagged HACE1 wild-type [human] / myc-Rac1 Q61L [not stated] (parent complex)
# chain 1: MERAMEQLNRLTRSLRRARTVELPEDNETAVYTLMPMVMADQHRSVSELLSNSKFDVNYAFGRVKRSLLHIAANCGSVECLVLLLKKGANPNYQDISGCTPLHLAARNGQKKCMSKLLEYSADVNICNNEGLTAIHWLAVNGRTELLHDLVQHVSDVDVEDAMGQTALHVACQNGHKTTVQCLLDSGADINRPNVSGATPLYFACSHGQRDTAQILLLRGAKYLPDKNGVTPLDLCVQGGYGETCEVLIQYHPRLFQTIIQMTQNEDLRENMLRQVLEHLSQQSESQYLKILTSLAEVATTNGHKLLSLSSNYDAQMKSLLRIVRMFCHVFRIGPSSPSNGIDMGYNGNKTPRSQVFKPLELLWHSLDEWLVLIATELMKNKRDSTEITSILLKQKGQDQDAASIPPFEPPGPGSYENLSTGTRESKPDALAGRQEASADCQDVISMTANRLSAVIQAFYMCCSCQMPPGMTSPRFIEFVCKHDEVLKCFVNRNPKIIFDHFHFLLECPELMSRFMHIIKAQPFKDRCEWFYEHLHSGQPDSDMVHRPVNENDILLVHRDSIFRSSCEVVSKANCAKLKQGIAVRFHGEEGMGQGVVREWFDILSNEIVNPDYALFTQSADGTTFQPNSNSYVNPDHLNYFRFAGQILGLALNHRQLVNIYFTRSFYKHILGIPVNYQDVASIDPEYAKNLQWILDNDISDLGLELTFSVETDVFGAMEEVPLKPGGGSILVTQNNKAEYVQLVTELRMTRAIQPQINAFLQGFHMFIPPSLIQLFDEYELELLLSGMPEIDVSDWIKNTEYTSGYEREDPVIQWFWEVVEDITQEERVLLLQFVTGSSRVPHGGFANIMGGSGLQNFTIAAVPYTPNLLPTSSTCINMLKLPEYPSKEILKDRLLVALHCGSYGYTMA
# chain 2: not shown
# Variants of: B1
# Experiment: co-immunoprecipitation (anti-myc IP), quantified; cells co-transfected with myc-Rac1 Q61L and HA-tagged HACE1 mutants; n ≥ 4 biological replicates; parent: 1; read off a plot
row,Variant,ratio to parent
1,chain 1 V140A,~3.2
2,chain 1 V140L,~0.55
3,chain 1 Q173A,~0.28
4,chain 1 A204T,~0.11
5,chain 1 N174A,~0.26
6,chain 1 G175C,~0.14
7,chain 1 G175S,~0.18
8,chain 1 M114V,~2.3

# Source: PMC5357957 (2017)
